Publication PMC10639050, “ZNF432 stimulates PARylation and inhibits DNA resection to balance PARPi sensitivity and resistance”

What was measured:
ZNF432 KRAB domain = ZNF432 KRAB domain (Homo sapiens, UniProt O94892 1-205); experiment: EMSA; negligible binding; 1-6 nM protein, no fixation; 25 mM MOPS pH 7.0, 60 mM KCl, 0.2% Tween, 2 mM DTT, CaCl2 (40 nM as printed with glutaraldehyde fixation; 1 mM without fixation for Kd), 37 C 30 min; 8% TBE acr; conditions: protein: recombinant; tags: His (GST removed with PreScission); label: 32P (gamma-32P); single strand
ZNF432 full-length = ZNF432 full-length (Homo sapiens, UniProt O94892 1-652); experiment: EMSA; no fixation, 1 mM CaCl2; 100 nM DNA stated, protein 1-6 nM; 25 mM MOPS pH 7.0, 60 mM KCl, 0.2% Tween, 2 mM DTT, CaCl2 (40 nM as printed with glutaraldehyde fixation; 1 mM without fixation for Kd), 37 C 30 min; 8% TBE acr; conditions: protein: recombinant; tags: C-terminal 10xHis (GST removed with PreScission); label: 32P (gamma-32P); single strand
Sequence of ZNF432 full-length (O94892 whole entry): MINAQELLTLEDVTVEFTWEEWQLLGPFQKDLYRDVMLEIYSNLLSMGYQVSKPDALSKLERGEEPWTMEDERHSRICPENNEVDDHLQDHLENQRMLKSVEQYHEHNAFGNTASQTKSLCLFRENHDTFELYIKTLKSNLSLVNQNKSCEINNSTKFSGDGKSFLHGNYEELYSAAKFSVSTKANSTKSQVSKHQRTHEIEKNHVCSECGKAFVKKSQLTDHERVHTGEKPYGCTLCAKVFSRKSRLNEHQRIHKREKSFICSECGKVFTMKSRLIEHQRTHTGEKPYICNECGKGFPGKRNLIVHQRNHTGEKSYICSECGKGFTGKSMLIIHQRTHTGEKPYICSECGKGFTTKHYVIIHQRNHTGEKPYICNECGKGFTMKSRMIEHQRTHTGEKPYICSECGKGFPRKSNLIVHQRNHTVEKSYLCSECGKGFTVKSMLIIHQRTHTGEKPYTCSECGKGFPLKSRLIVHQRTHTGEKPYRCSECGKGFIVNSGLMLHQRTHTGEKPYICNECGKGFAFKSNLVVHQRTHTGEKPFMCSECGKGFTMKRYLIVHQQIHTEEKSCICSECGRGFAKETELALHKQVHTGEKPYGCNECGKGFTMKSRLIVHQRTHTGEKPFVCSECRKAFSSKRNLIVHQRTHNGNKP

Sequence of ZNF432 KRAB domain (O94892 1-205): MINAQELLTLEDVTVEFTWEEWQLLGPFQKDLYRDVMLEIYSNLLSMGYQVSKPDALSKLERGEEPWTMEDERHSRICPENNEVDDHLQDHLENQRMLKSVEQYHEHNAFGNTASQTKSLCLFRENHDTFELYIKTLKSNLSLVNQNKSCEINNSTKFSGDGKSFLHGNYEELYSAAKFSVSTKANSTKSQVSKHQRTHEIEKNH

B1: Single-stranded DNA (ssDNA)
DNA: GGGCGAATTGGGCCCGACGTCGCATGCTCCTCTAGACTCGAGGAATTCGGTACCCCGGGTTCGAAATCGATAAGCTTACAGTCTCCATTTAAAGGACAAG
- binding result (ZNF432 KRAB domain): no binding
- Kd (ZNF432 full-length): 5.41 nM
